Assay results published in publication PMC3934923.

Biological target: LKB1 (endogenous, C2C12 myotubes) (mouse (endogenous in C2C12)) (UniProt Q9WTK7)
Conditions: scale: % of the AMPK phosphorylation obtained with AICAR

Chain of UniProt Q9WTK7 (Q9WTK7 whole entry): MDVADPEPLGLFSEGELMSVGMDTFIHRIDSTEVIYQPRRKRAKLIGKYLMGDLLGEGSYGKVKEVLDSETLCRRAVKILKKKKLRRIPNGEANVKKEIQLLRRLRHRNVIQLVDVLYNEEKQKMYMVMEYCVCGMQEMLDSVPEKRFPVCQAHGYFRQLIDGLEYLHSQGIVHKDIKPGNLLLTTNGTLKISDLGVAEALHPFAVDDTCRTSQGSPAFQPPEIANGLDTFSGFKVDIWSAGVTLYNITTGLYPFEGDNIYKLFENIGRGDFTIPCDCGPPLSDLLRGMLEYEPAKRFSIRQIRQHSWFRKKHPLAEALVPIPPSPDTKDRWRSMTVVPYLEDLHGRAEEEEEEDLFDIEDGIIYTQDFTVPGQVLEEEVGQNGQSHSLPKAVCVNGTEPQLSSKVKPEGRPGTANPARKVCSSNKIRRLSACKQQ

Substance: Fyn (endogenous, C2C12 myotubes) (from UniProt P39688 1-537) (enzyme)
- AMPK T172 phosphorylation in C2C12 myotubes transduced with increasing concentrations of 11R-WT, immunoblot; little effect with 11R-Sca: 80
